Experiments:
[1] = target: Capu-NT, the N-terminal half of Cappuccino (aa 1–466) (Drosophila) (UniProt Q24120)
Capu(1–321) (Drosophila) = Capu(1–321) (Drosophila) (UniProt Q24120)
[2] = target: Capu-tail–Alexa Fluor 488 (Drosophila); assay: fluorescence polarisation
SEC-MALS = target: the molecule itself; assay: SEC-MALS
[3] = target: T1, Capu-CT, the C-terminal half of Cappuccino (aa 467–1059) (Drosophila, UniProt Q24120 467-1059); assay: cell-based or functional assay
T1 sequence (looked up): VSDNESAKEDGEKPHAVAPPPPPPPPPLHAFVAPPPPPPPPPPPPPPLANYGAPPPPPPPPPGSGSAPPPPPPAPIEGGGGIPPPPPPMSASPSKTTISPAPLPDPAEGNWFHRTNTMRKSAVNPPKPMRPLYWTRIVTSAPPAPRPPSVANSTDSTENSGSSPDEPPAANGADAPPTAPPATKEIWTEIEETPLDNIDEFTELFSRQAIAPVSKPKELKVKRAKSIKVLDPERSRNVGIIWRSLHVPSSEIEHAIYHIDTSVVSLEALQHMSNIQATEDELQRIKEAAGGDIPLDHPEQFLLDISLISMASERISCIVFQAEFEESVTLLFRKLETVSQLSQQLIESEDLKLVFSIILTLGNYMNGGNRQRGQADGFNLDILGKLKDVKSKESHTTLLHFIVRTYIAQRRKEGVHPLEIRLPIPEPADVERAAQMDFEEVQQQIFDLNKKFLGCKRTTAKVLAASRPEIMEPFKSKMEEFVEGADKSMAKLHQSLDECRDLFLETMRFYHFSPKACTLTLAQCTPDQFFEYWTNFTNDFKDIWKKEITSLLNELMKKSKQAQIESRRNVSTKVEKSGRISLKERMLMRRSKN

AUC = target: the molecule itself; assay: AUC

Molecule: GST–Capu-tail (dimeric) (domain or fragment)
- Kd calculated from the pyrene-actin competition assay (Vinson analysis) [1]: 167 nM

Molecule: Capu-tail (monomeric peptide cleaved from GST–Capu-tail)
- EC50 of relief of Capu(1–321) inhibition of Capu-CT in the pyrene-actin assay (Capu(1–321) (Drosophila)): 3000 nM

B1: Capu(1–321) (domain or fragment, Drosophila, UniProt Q24120 1-321, looked up)
chain: MALQLGKKLAQVLGSGAGSPLTPGTMEPCAAGSGSPLANGELFNVSKAKKVELQNLSSRFTAAVTQTPPGVTSSTPNESGVTGPAGPLGATTSSPSLETQSTVIISFKSSQTPVQSQTNSAASENVEDDTAPLPLPPPPPGFGTPTTPLLSSNVLKKVASFTVEKSSAGNNSSNPPNLCPTSDETTLLATPCSSSLTVATLPPEIAVGAAAGGVAGGAGSRRGSSYVPEKLSFAAYEKFEGQMLIKWLISTMQSNPKSSSGDANQELFNTLALQFCNNLKYVGVLKQISNEHLDCGFSPYEMYQWTHTEQPTTSLPLTPGK
- Kd [2]: 300 nM
- stoichiometry N (SEC-MALS): 2

B2: Capu(1–222) (domain or fragment, Drosophila, UniProt Q24120 1-222, looked up)
chain: MALQLGKKLAQVLGSGAGSPLTPGTMEPCAAGSGSPLANGELFNVSKAKKVELQNLSSRFTAAVTQTPPGVTSSTPNESGVTGPAGPLGATTSSPSLETQSTVIISFKSSQTPVQSQTNSAASENVEDDTAPLPLPPPPPGFGTPTTPLLSSNVLKKVASFTVEKSSAGNNSSNPPNLCPTSDETTLLATPCSSSLTVATLPPEIAVGAAAGGVAGGAGSRR
- Kd [2]: 4800 nM
- inhibition activity in the pyrene-actin assay relative to Capu-NT, at 100 nM [3]: ~40%

B3: Capu-NT, the N-terminal half of Cappuccino (aa 1–466) (domain or fragment, Drosophila, UniProt Q24120 1-466, looked up)
chain: MALQLGKKLAQVLGSGAGSPLTPGTMEPCAAGSGSPLANGELFNVSKAKKVELQNLSSRFTAAVTQTPPGVTSSTPNESGVTGPAGPLGATTSSPSLETQSTVIISFKSSQTPVQSQTNSAASENVEDDTAPLPLPPPPPGFGTPTTPLLSSNVLKKVASFTVEKSSAGNNSSNPPNLCPTSDETTLLATPCSSSLTVATLPPEIAVGAAAGGVAGGAGSRRGSSYVPEKLSFAAYEKFEGQMLIKWLISTMQSNPKSSSGDANQELFNTLALQFCNNLKYVGVLKQISNEHLDCGFSPYEMYQWTHTEQPTTSLPLTPGKLDKVAAWPFSSTPSGIRALESASLASLGAGGVAGSLATIATASTASSDNQKTLQQILKKRLLNCTTLAEVHAVVNELLSSVDEPPRRPSKRCVNLTELLNASEATVYEYNKTGAEGCVKSFTDAETQTESEDCEGTCKCGQSSTK
- Kd [2]: 300 nM
- Kd (AUC): 245 nM
- stoichiometry N (AUC): 2

Source: paper PMC3459857 (Molecular Biology of the Cell, 2012)
